Patent publication US20260109758A1 (BIOSION, published 2026)
Read-outs that look alike come from different tables or passages of the source.

How the values were obtained:
[1] = target: T1, recombinant human IL4Rα-his (human, UniProt P24394 26-231, limits assumed, biotin-labeled in the capture ELISA); test: capture ELISA: antibody captured on anti-human IgG Fc F(ab')2, biotin human IL4Rα-his, SA-HRP
T1 construct: In-house made; not shown: His tag at the C-terminus
Description: (§1) Briefly, 96-well plates were coated with 2 μg/mL AffiniPure F(ab′)₂ Fragment Goat Anti-Human IgG, Fey fragment specific (Jackson Immuno Research, Cat #109-006-008) in PBS, 100 μL/well, overnight at 4° C. Plates were washed once with wash buffer (PBS+0.05% w/v Tween-20, PBST) and then blocked with 200 μL/well blocking buffer (5% w/v non-fatty milk in PBST) for 2 hours at 37° C. […] After a final wash, plates were incubated with 100 μL/well ELISA substrate TMB (Innoreagents, Cat #TMB-S-002). The reaction was stopped in 10 minutes at 25° C. with 50 μL/well 1M H₂SO₄, and the absorbance was read on a microplate reader using dual wavelength mode with 450 nm for TMB and 630 nm as the reference wavelength. Data was analyzed using Graphpad Prism and EC₅₀ values were reported.

[2] = target: T2, human IL4Rα expressed on 293F-IL4Rα cell surface (human, UniProt P24394 26-825); test: flow cytometry on 293F-IL4Rα cells, PE anti-human IgG Fc
T2 construct: whole, on cells; also called human IL4Rα-expressing cells; cell surface IL4R
Description: (§2) Cells were washed twice with FACS buffer, and added with 100 μL/well R-Phycoerythrin AffiniPure Goat Anti-Human IgG, Fey fragment specific (1:1000 dilution in FACS buffer, Jackson Immunoresearch, Cat #109-115-098). Following an incubation of 40 minutes at 4° C. in dark, cells were washed three times and resuspended in FACS buffer. Fluorescence was measured using a Becton Dickinson FACS Canto II-HTS equipment. Data was analyzed using Graphpad Prism and EC₅₀ values were reported.

[3] = target: T1, recombinant human IL4Rα-his; test: SPR Biacore T200; antibody captured on anti-human IgG CM5 chip, IL4Rα-his as analyte; 1:1 Langmuir fit
Description: The goat anti-human IgG (GE healthcare, Cat #BR100839, Human Antibody Capture Kit) was covalently linked to a CM5 chip (carboxy methyl dextran coated chip) via primary amines, using a standard amine coupling kit provided by Biacore (GE healthcare, Pittsburgh, PA, USA). Un-reacted moieties on the biosensor surface were blocked with ethanolamine. Then, purified bispecific antibodies of the disclosure at the concentration of 66.67 nM and the controls at 10 μg/mL, were flowed onto the chip at a flow rate of 10 μL/min. Then, serially diluted recombinant human IL4Rα-his (in house made, IL4Rα of SEQ ID NO: 33 with His tag at C-terminus) in HBS EP buffer (provided by Biacore) was flowed onto the chip at a flow rate of 30 μL/min. The association and dissociation curves were fit to a 1:1 Langmuir binding model using BIAcore evaluation software.

[4] = target: T2, human IL4Rα expressed on 293F-IL4Rα …; test: cell-based blocking FACS on 293F-IL4Rα cells; blocked ligand biotin human IL4
Description: (§3) Then, 1×10⁵ cells per well were incubated in 96 well-plates in 100 μL of serially diluted bispecific antibodies, the positive controls or negative control (starting at 100 nM with a 5-fold serial dilution) in FACS buffer for 40 minutes on ice. […] The plates were washed twice with FACS buffer, and then added and incubated for 40 minutes at 4° C. in dark with 100 μL/well R-Phycoerythrin Streptavidin (1:500 dilution in FACS buffer, Jackson Immunoresearch, Cat #016-110-084). Cells were washed twice and resuspended in FACS buffer. Fluorescence was measured using a Becton Dickinson FACS Canto II-HTS equipment. Data was analyzed using Graphpad Prism and IC₅₀ values were reported.

[5] = target: T1, recombinant human IL4Rα-his; test: capture ELISA: antibody captured on anti-human IgG Fc F(ab')2, biotin human IL4Rα-his, SA-HRP; remark: listed apart in the source
Description: as §1

[6] = target: T2, human IL4Rα expressed on 293F-IL4Rα …; test: cell-based blocking FACS on 293F-IL4Rα cells; blocked ligand biotin human IL4; remark: listed apart in the source
Description: as §3

[7] = target: T2, human IL4Rα expressed on 293F-IL4Rα …; test: flow cytometry on 293F-IL4Rα cells, PE anti-human IgG Fc; remark: listed apart in the source
Description: as §2

[8] = target: T3, biotin-labeled human TSLP-Fc (human, biotin-labeled); test: cell-based blocking FACS: antibody pre-mixed with biotin human TSLP-Fc; blocked binding to cell-surface TSLPR/IL7Ra on HEK293T-TSLPR/IL7R/STAT5-Luc 5C5 cells
T3 construct: also called TSLP-Fc protein; TSLP-Fc-biotin
Description: (§4) The cells were prepared following the instruction of lipofectamine 3000 transfection reagent (Thermo Fisher), by transfecting HEK293T cells (ATCC® CRL-11268) with pCMV-T-P plasmids inserted with TSLPR coding sequence between EcoRI and Xba1 sites and pCMV3-SP plasmids inserted with IL7Ra coding sequence between HindIII and Xba1 sites as well as pGL4.52 [luc2P/STAT5RE/Hygro](Promega).
(§5) The cells were harvested from cell culture flasks, washed twice and re-suspended in phosphate buffered saline (PBS) containing 2% v/v Fetal Bovine Serum (FACS buffer). […] Cells were washed twice with FACS buffer, and then added and incubated with 100 μL/well R-Phycoerythrin Streptavidin (1:500 dilution in FACS buffer, Jackson Immunoresearch, Cat #016-110-084) for 40 minutes at 4° C. in dark. Cells were washed twice and re-suspended in FACS buffer. Fluorescence was measured using a Becton Dickinson FACS Canto II-HTS equipment. Data was analyzed using Graphpad Prism and IC₅₀ values were reported.

[9] = target: T3, biotin-labeled human TSLP-Fc; test: as above; remark: listed apart in the source
Description: as §4, §5

[10] = target: T1, recombinant human IL4Rα-his; test: competitive ELISA: coated human IL4Rα-his, antibody titrated; blocked ligand biotin human IL4
Description: Briefly, 100 μL human IL4Rα-his proteins (prepared in-house, IL4Rα of SEQ ID NO: 33 with C-terminal His tag) were coated on 96-well micro plates at 2 μg/mL in PBS overnight at 4° C. The next day, plates were washed with wash buffer (PBS+0.05% w/v Tween-20, PBST), and blocked with 5% w/v non-fatty milk in PBST for 2 hours at 37° C. Plates were then washed again using wash buffer. Serially diluted bispecific antibodies or the controls (starting at 100 nM with a 5-fold serial dilution) in 2.5% w/v non-fatty milk in PBST, 100 μL per well, were added to the IL4Rα bound plates, and incubated at 37° C. for 40 minutes. […] Plates were washed again using wash buffer. Thereafter, the plates were added with 100 μL/well of streptavidin conjugated HRP (1:10000 dilution in PBST buffer, Jackson Immunoresearch, Cat #016-030-084) and incubated for 40 minutes at 37° C. Plates were washed again using wash buffer. Finally, TMB was added and the reaction was stopped using 1M H₂SO₄, and the absorbance was read at 450 nm. Data was analyzed using Graphpad Prism and IC₅₀ values were reported.

[11] = target: T4, recombinant human TSLP-his (human, UniProt Q969D9 29-159, biotin-labeled in the ELISAs); test: SPR Biacore; TSLP-his amine-coupled to CM5 chip, antibody as analyte; 1:1 Langmuir fit
T4 construct: In-house made; not shown: His tag at the C-terminus
Description: Un-reacted moieties on the biosensor surface were blocked with ethanolamine. Then, serially diluted purified bispecific antibodies and the controls (2-fold serial dilution in HBS-EP⁺ buffer starting at 100 nM) were respectively flowed onto the chip at a flow rate of 30 μL/min. The antigen-antibody association kinetics was followed for 4 minutes and the dissociation kinetics was followed for 13 minutes.

[12] = target: T1, recombinant human IL4Rα-his; test: dual-binding ELISA: coated human IL4Rα-his, antibody titrated, detection with biotin human TSLP-his and SA-HRP; signal needs both antigens bound
Description: For the dual-binding ELISA, 96-well ELISA plates were firstly coated with 100 μL 1 μg/mL human IL4Rα-his protein (IL4Rα of SEQ ID NO: 33 with His tag at C terminus, prepared in-house) in PBS overnight at 4° C. ELISA plates were washed 4 times with wash buffer (PBS+0.05% Tween-20, PBST) and then blocked with 200 μL/well blocking buffer (5% w/v non-fatty milk in PBST) for 2 hours at 37° C. […] ELISA plates were washed again and incubated with SA-HRP (100 μl/well) for 40 minutes at 37° C. After the final wash, 100 μL/well TMB (Innoreagents) was added. The reaction was stopped 15 minutes later at room temperature with 50 μL/well 1M H₂SO₄, and the absorbance was read on a microplate reader using dual wavelength mode with 450 nm for TMB and 630 nm as the reference wavelength. The OD (450-630) values were plotted against antibody concentration. Data was analyzed using Graphpad Prism and EC₅₀ values were reported.

Row | EC50 [1] [nM] | EC50 [2] [nM] | Kd [3] [nM] | koff [3] [s⁻¹] | kon [3] [M⁻¹ s⁻¹] | IC50 [4] [nM] | EC50 [5] [nM] | IC50 [6] [nM] | EC50 [7] [nM] | IC50 [8] [nM] | IC50 [9] [nM] | IC50 [10] [nM] | Kd [11] [nM] | koff [11] [s⁻¹] | kon [11] [M⁻¹ s⁻¹] | EC50 [12] [nM] | Binder
1 | 0.0201 | ~0.162 | 2.07 | 0.000348 | 168000 | 0.159 | 0.0294 | 0.172 | ~0.165 | – | – | – | – | – | – | – | huC2C1A1A1-V15(IgG1) (antibody, Monospecific control, full-length IgG1; also called huC2C1A1A-V15(IgG1); anti-IL4R huC2C1A1A1-V15) heavy: EVQLVESGGGLVQPGGSLRLSCAASGFTFSTYGMSWVRQAPGKGLVWVATINSNGGSTSYPDSVKGRFTISRDNAKNTLYLQMNSLRAEDTAVYYCARFFRFRNAMDYWGQGTLVTVSSASTKGPSVFPLAPSSKSTSGGTAALGCLVKDYFPEPVTVSWNSGALTSGVHTFPAVLQSSGLYSLSSVVTVPSSSLGTQTYICNVNHKPSNTKVDKKVEPKSCDKTHTCPPCPAPEAQGGPSVFLFPPKPKDTLYITREPEVTCVVVDVSHEDPEVKFNWYVDGVEVHNAKTKPREEQYNSTYRVVSVLTVLHQDWLNGKEYKCQVSNKALPAPIEKTISKAKGQPREPQVYTLPPSRDELTKNQVSLTCLVKGFYPSDIAVEWESNGQPENNYKTTPPVLDSDGSFFLYSKLTVDKSRWQQGNVFSCSVMHEALHNHYTQKSLSLSPG light: DIQMTQSPSSLSASVGDRVTITCRTSENIYSYLAWYQQKPGKAPKFLVYNAKTLAEGVPSRFSGSGSGTDFTLTISSLQPEDFATYYCQHYYGPPTWTFGQGTKVEIKRTVAAPSVFIFPPSDEQLKSGTASVVCLLNNFYPREAKVQWKVDNALQSGNSQESVTEQDSKDSTYSLSSTLTLSKADYEKHKVYACEVTHQGLSSPVTKSFNRGEC
2 | – | – | – | – | – | – | – | – | – | 1.23 | – | – | – | – | – | – | Tezepelumab (antibody, human IgG2, lambda, V domains shown, Positive control, prepared in-house; also called an anti-TSLP antibody) VH: QMQLVESGGGVVQPGRSLRLSCAASGFTFRTYGMHWVRQAPGKGLEWVAVIWYDGSNKHYADSVKGRFTITRDNSKNTLNLQMNSLRAEDTAVYYCARAPQWELVHEAFDIWGQGTMVTVSS VL: SYVLTQPPSVSVAPGQTARITCGGNNLGSKSVHWYQQKPGQAPVLVVYDDSDRPSWIPERFSGSNSGNTATLTISRGEAGDEADYYCQVWDSSSDHVVFGGGTKLTVLG
3 | – | 0.458 | 4.88 | 0.000244 | 50000 | 0.326 | 0.182 | – | – | – | 1.13 | 0.38 | < 0.0141 | < 1e-05 | 710000 | 0.104 | BSI-502-006 (bispecific antibody, human IgG1, kappa, hu1C5F12E9-V8 IgG with an anti-IL4R scFv (VL-VH) at the C-terminus of the heavy chain; AQQ and YTE already stand in the entry) heavy: QVQLVQSGAEVKKPGASVKVSCKASGYTFTTYWMHWVRQAPGQGLEWMGVIDPSDSDTTYNQKFKGRVTMTRDTSTSTVYMELSSLRSEDTAVYYCTRSLDGYYDYWGQGTLVTVSSASTKGPSVFPLAPSSKSTSGGTAALGCLVKDYFPEPVTVSWNSGALTSGVHTFPAVLQSSGLYSLSSVVTVPSSSLGTQTYICNVNHKPSNTKVDKKVEPKSCDKTHTCPPCPAPEAQGGPSVFLFPPKPKDTLYITREPEVTCVVVDVSHEDPEVKFNWYVDGVEVHNAKTKPREEQYNSTYRVVSVLTVLHQDWLNGKEYKCQVSNKALPAPIEKTISKAKGQPREPQVYTLPPSRDELTKNQVSLTCLVKGFYPSDIAVEWESNGQPENNYKTTPPVLDSDGSFFLYSKLTVDKSRWQQGNVFSCSVMHEALHNHYTQKSLSLSPGKGGGGSGGGGSDIQMTQSPSSLSASVGDRVTITCRTSENIYSYLAWYQQKPGKAPKFLVYNAKTLAEGVPSRFSGSGSGTDFTLTISSLQPEDFATYYCQHYYGPPTWTFGQGTKVEIKGGGGSGGGGSGGGGSGGGGSEVQLVESGGGLVQPGGSLRLSCAASGFTFSTYGMSWVRQAPGKGLVWVATINSNGGSTSYPDSVKGRFTISRDNAKNTLYLQMNSLRAEDTAVYYCARFFRFRNAMDYWGQGTLVTVSS light: DIQMTQSPSSLSASVGDRVTITCRPTENIYSYLAWYQQKPGKAPKLLIYFARTLAEGVPSRFSGSGSGTDFTLTISSLQPEDFATYYCQHHYGTPWTFGGGTKVEIKRTVAAPSVFIFPPSDEQLKSGTASVVCLLNNFYPREAKVQWKVDNALQSGNSQESVTEQDSKDSTYSLSSTLTLSKADYEKHKVYACEVTHQGLSSPVTKSFNRGEC
